Data as given in patent US20240010735A1 (EISAI R AND D MANAGEMENT, published 2024).

Tests used:
[1] = molecular target: T1, human EphA4 fibronectin type III domain 2-MBP-His protein (human, UniProt P54764 436-547); test: ELISA; domain-MBP-His protein captured by anti-6-His antibody
T1 construct: also called fibronectin type III domain 2 (FN2); not shown: histidine tag
Protocol: (§1) Rabbit anti-6-His antibodies (Bethyl Laboratories) were coated onto the wells of a 96-well plate (Nunc). After incubating at 4° C. overnight, the wells were blocked at room temperature for 1 hour by 1% Block Ace (DS Pharma Biomedical). After washing twice with 0.02% Tween 20/PBS (Nacalai Tesque), human EphA4 extracellular region-MBP-His protein, human EphA4 ligand binding domain-MBP-His protein, human EphA4 fibronectin type III domain 1-NBP-His protein, and human EphA4 fibronectin type III domain 2-MBP-His protein (final concentration 10 nM) were seeded into the wells, and incubated at room temperature for 1 hour. After washing 3 times, antibody A (final concentration 10 nM) was supplemented to the wells, and incubated at room temperature for 1 hour. Horseradish peroxidase-labeled goat anti-mouse IgG Fcγ fragment antibody (Jackson ImmunoResearch Laboratories) was added, and incubated at room temperature for 1 hour. After washing 5 times, TMB solution (KPL) was added to the wells, and upon confirmation of modest coloring, an equal amount of quenching solution (2 N H₂SO₄, Wako Pure Chemicals) was added to the wells, and absorbance at 450 nm and 650 nm were read by a microplate reader (PerkinElmer).
as §1, with “domain 1-MBP-His” for “domain 1-NBP-His”, “antibody B” for “antibody A”, “peroxidase-labeled rabbit anti-human” for “peroxidase-labeled goat anti-mouse”, “IgG Fey” for “IgG Fcγ”, “hour.” for “hour. After washing 5 times, TMB solution (KPL) was added to the wells, and upon confirmation of modest coloring, an equal amount of quenching solution (2 N H₂SO₄, Wako Pure Chemicals) was added to the wells, and absorbance at 450 nm and 650 nm were read by a microplate reader (PerkinElmer).”

[2] = molecular target: T2, human EphA4 fibronectin type III domain 1-MBP-His protein (human, UniProt P54764 205-440); test: as above
T2 construct: also called fibronectin type III domain 1 (FN1); not shown: histidine tag
Protocol: as §1
as §1, with “domain 1-MBP-His” for “domain 1-NBP-His”, “antibody B” for “antibody A”, “peroxidase-labeled rabbit anti-human” for “peroxidase-labeled goat anti-mouse”, “IgG Fey” for “IgG Fcγ”, “hour.” for “hour. After washing 5 times, TMB solution (KPL) was added to the wells, and upon confirmation of modest coloring, an equal amount of quenching solution (2 N H₂SO₄, Wako Pure Chemicals) was added to the wells, and absorbance at 450 nm and 650 nm were read by a microplate reader (PerkinElmer).”

[3] = molecular target: T3, human EphA4 extracellular region-SEAP-His protein (human, UniProt P54764 20-547); test: competition ELISA; captured human EphA4 extracellular region-SEAP-His, competitor biotinylated human EphrinA5-Fc chimera (0.7 nM)
T3 construct: also called human EphA4 extracellular region-SEAP-His 10; not shown: secretory alkaline phosphatase (SEAP); histidine tag
Protocol: Anti-alkaline phosphatase antibodies (Thermo […]) were coated onto the wells of a 96-well plate (Nuns). After incubating at 4° C. overnight, the wells were blocked at room temperature for 1 hour by 1% Block Ace (DS Pharma Biomedical). After washing 3 times with 0.05% Tween 20/PBS (Thermo […]), human EphA4 extracellular region-SEAP-His protein was added to the wells (final concentration 10 nM), and incubated at room temperature for 1 hour. After washing 3 times, the ligand and serially diluted antibody A (0, 0.003, 0.01, 0.03, 0.1, 0.3, 1, 3, 10, 30, 100, 300, 1000, 3000 nM) were supplemented to the wells. Note that biotinylated human EphrinA5-Fc chimera (R&D Systems, final concentration 0.7 nM) and biotinylated human EphrinB3-Fc chimera (R&D Systems, final concentration 2.3 nM) were employed as ligands. After incubating at room temperature for 1 hour and washing 3 times, horseradish peroxidase-labeled streptavidin (GE Healthcare) was added, and incubated at room, temperature for 1 hour. After washing 3 times, TMBZ (3,3′,5,5 ′-tetramethylbenzidine, Sigma) solution was added to the wells, and incubated at room temperature for 2-5minutes. An equal amount of quenching solution (1 N H₂SO₄, Wako Pure Chemicals) was added to the wells, and absorbance at 450 nm was read by a microplate reader (Molecular Devices or PerkinElmer). […]

[4] = molecular target: T3, human EphA4 extracellular …; test: competition ELISA; captured human EphA4 extracellular region-SEAP-His, competitor biotinylated human EphrinB3-Fc chimera (2.3 nM)

T3 sequence (P54764 20-547): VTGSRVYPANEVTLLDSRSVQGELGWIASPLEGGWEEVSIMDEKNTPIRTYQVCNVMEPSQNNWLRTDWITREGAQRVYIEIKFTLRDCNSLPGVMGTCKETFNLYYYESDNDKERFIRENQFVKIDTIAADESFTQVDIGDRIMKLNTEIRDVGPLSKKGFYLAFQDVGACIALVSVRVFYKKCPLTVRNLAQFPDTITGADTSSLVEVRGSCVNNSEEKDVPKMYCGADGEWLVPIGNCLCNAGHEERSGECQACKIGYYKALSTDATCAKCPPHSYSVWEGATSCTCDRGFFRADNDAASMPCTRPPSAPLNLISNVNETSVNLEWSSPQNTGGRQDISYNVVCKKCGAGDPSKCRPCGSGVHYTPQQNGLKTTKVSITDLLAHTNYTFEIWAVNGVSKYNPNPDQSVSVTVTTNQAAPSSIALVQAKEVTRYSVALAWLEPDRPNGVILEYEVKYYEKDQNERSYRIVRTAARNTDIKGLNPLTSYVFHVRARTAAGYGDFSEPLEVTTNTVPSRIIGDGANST
T2 sequence (P54764 205-440 limits assumed): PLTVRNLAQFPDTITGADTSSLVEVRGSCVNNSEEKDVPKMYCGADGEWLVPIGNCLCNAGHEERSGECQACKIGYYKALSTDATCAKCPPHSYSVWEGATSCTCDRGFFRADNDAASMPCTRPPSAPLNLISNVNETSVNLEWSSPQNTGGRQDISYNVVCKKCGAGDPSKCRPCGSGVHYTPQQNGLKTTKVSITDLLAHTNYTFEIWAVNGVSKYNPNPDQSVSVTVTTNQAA
T1 sequence (P54764 436-547 limits assumed): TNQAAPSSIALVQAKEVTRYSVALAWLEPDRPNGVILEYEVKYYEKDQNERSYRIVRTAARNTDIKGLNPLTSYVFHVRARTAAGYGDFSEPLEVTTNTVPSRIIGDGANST

B1: humanized anti-EphA4 monoclonal antibody (antibody B) (antibody, human IgG2, V domains shown)
VH: QVQLVESGGGVVQPGRSLRLSCAVSGFSLTRFGVHWVRQAPGKGLEWVAVIWRGGSTDYNAAFMSRLTISKDNSKNTVYLQMNSLRAEDTAVYYCAKESLFGVYYDYGYYSMDYWGQGTTVTVSS
VL: DIQMTQSPSSLSASVGDRVTITCRASQEISGYLSWLQQKPGKAPKRLIYAASTLDSGVPSRFSGSRSGTEYTLTISSLQPEDFATYYCLQYASYPLTFGGGTKVEIKR
notes: expressed in Expi293F cells; also called humanized antibody of antibody A; HK2-42 / L1-8
[1]
  binding result: no binding (tested: 10 nM)
[2]
  binding result: no binding (tested: 10 nM)
[3]
  IC50: ~4.9 nM
[4]
  IC50: ~1.6 nM

B2: mouse anti-EphA4 monoclonal antibody (antibody A) (antibody, mouse IgG1, kappa, V domains shown)
VH: QVQLKQSGPSLVQPSQSLSITCTVSGFSLTRYGVHWVRQSPGKGLEWLGVIWRGGSTDYNAAFMSRLSITKDNSKSQVFFKMNSLQADDTAIYYCAKESLFGVYYDYGYYSMDYWGQGTSVTVSS
VL: DIQMTQSPSSLSASLGERVSLTCRASQEISGYLSWLQQKPDGTIKRLIYAASTLDSGVPKRFSGSRSGSDYSLTISSLESEDFADYYCLQYASYPLTFGAGTKLELKR
notes: purified from hybridoma supernatant
[1]
  binding result: no binding (tested: 10 nM)
[2]
  binding result: no binding (tested: 10 nM)
[3]
  IC50: ~2.8 nM
[4]
  IC50: ~1.4 nM
